# Assay results reported in the supplement of paper PMC10219994.
# ± gives the standard deviation of the averaged measurements.
# B1: library; a variant is named by its letters at N, in order (parent)
# chain: GAGACCGCAACTGAAAAGTTGTGGNNNNNATAGTGAGTCGCTGCCTGCAAAGACACAACT
# Variants of: B1
# Experiment: ligation selection enrichment (abundance after / before one-round selection) (fold); higher = more template-directed ligation activity
# Conditions: with T7Psub CACGGAUGCUAAUACGACUCACUAUA; MgCl2 25 mM; 42 °C; 4 h; pH 8.5
# Protocol: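 Lib-N5 ligase ribozyme library: five randomized core nucleotides (including the GGA motif of N8-1) within the fixed N8-1 ribozyme flanks, transcribed by T7 RNA polymerase with a 5'-triphosphate. The library (0.75 uM) was reacted with substrate T7Psub (6 uM) in 50 mM EPPS pH 8.5 with 25 mM MgCl2 at 42 C for 4 h. Ligated products were PAGE-purified, reverse transcribed and MiSeq sequenced; enrichment = abundance after selection / abundance before selection, with two independent replicates. The full transcript is built from the printed template flanks.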
row,Variant,ligation selection enrichment
1,GTGTG,0.75 ± 0.1
2,GCGCC,0.191 ± 0.017
3,GTAAC,0.305 ± 0.011
4,GTAAG,0.509 ± 0.011
5,GTAAT,4.35 ± 0.56
6,GTCTC,0.116 ± 0.027
7,TACCT,0.599 ± 0.22
8,GATCA,0.464 ± 0.032
9,GATCC,0.276 ± 0.057
10,CGACC,0.239 ± 0.071
11,CATCA,0.288 ± 0.025
12,CATCG,1.33 ± 0.14
13,GACAT,0.499 ± 0.025
14,ATATA,0.239 ± 0.089
15,ATATG,1.01 ± 0.061
16,CGCTA,0.127 ± 0.032
17,CGCTG,0.141 ± 0.026
18,CGATA,1.05 ± 0.21
19,ACGCT,0.449 ± 0.15
20,ACGCA,0.248 ± 0.016
21,AACGG,0.32 ± 0.045
22,GACTG,0.762 ± 0.055
23,TCCAG,0.128 ± 0.027
24,TCCAC,0.118 ± 0.043

row,Variant,ligation selection enrichment
1,TCCAA,0.0717 ± 0.015
2,CGGCC,0.134 ± 0.031
3,CGGCT,0.432 ± 0.15
4,CTAAA,0.114 ± 0.017
5,CTAAG,0.314 ± 0.043
6,GGGTG,0.317 ± 0.033
7,ACAAT,3.6 ± 0.37
8,TGCAC,0.235 ± 0.059
9,TGCAA,0.289 ± 0.065
10,TACTT,0.0933 ± 0.018
11,TACTC,0.103 ± 0.036
12,CAAGT,0.157 ± 0.079
13,AGGGG,0.251 ± 0.027
14,AGGGA,0.322 ± 0.059
15,AGGGC,0.109 ± 0.0024
16,AGCAG,0.325 ± 0.015
17,GGTAT,5.34 ± 1.2
18,CAGAA,0.343 ± 0.0039
19,CAGAC,0.374 ± 0.044
20,CAGAT,9.36 ± 2
21,AATTA,0.421 ± 0.03
22,AATTG,1.46 ± 0.055
23,AATAA,0.179 ± 0.049
24,ACCAG,0.207 ± 0.033

row,Variant,ligation selection enrichment
1,ACCAA,0.144 ± 0.0063
2,AGAGA,0.338 ± 0.038
3,TGGTC,0.198 ± 0.019
4,TAGGA,0.998 ± 0.19
5,ATTTG,4.54 ± 1.9
6,ATTTA,0.445 ± 0.1
7,TACAC,0.139 ± 0.042
8,CTCCT,0.503 ± 0.14
9,TCTGT,0.0815 ± 0.058
10,TCTGC,0.143 ± 0.0073
11,TTCTT,0.119 ± 0.006
12,TGCCA,0.144 ± 0.028
13,TGCCG,0.559 ± 0.02
14,CCGTA,0.213 ± 0.013
15,CCGTG,0.111 ± 0.0037
16,GAAAC,0.146 ± 0.044
17,GAAAG,0.328 ± 0.021
18,CGGAC,3.77 ± 0.4
19,CGAGT,1.09 ± 0.25
20,CGAGG,0.422 ± 0.029
21,GATGA,0.606 ± 0.077
22,GATGG,0.46 ± 0.1
23,GATGT,0.126 ± 0.036
24,CCGAA,0.831 ± 0.069

row,Variant,ligation selection enrichment
1,CCGAC,1.37 ± 0.061
2,ATGCG,1.74 ± 0.19
3,ATGCA,0.419 ± 0.021
4,TTCAC,0.38 ± 0.036
5,TTCAG,0.375 ± 0.049
6,TTCAT,3.73 ± 1.1
7,GAACA,0.191 ± 0.024
8,GAACG,0.626 ± 0.017
9,GAACT,0.882 ± 0.31
10,ATACG,1.5 ± 0.28
11,ATACT,0.541 ± 0.11
12,TATAT,0.817 ± 0.18
13,CACAC,0.168 ± 0.031
14,GCGAC,1.92 ± 0.12
15,CACTG,0.286 ± 0.0061
16,TTCCT,0.443 ± 0.21
17,TTCCG,0.813 ± 0.068
18,TTCCC,0.175 ± 0.022
19,AGTCT,0.506 ± 0.043
20,GCATC,0.168 ± 0.016
21,GCCAA,0.222 ± 0.045
22,TTTAC,0.218 ± 0.013
23,TTTAT,1.19 ± 0.53
24,GAATA,0.175 ± 0.0089

row,Variant,ligation selection enrichment
1,ATTCC,0.246 ± 0.02
2,AGCTG,0.198 ± 0.0052
3,AGCTC,0.104 ± 0.0069
4,CATGT,0.109 ± 0.064
5,CATGG,0.226 ± 0.027
6,CCTAA,0.148 ± 0.0065
7,CCTAC,0.14 ± 0.03
8,ACTAA,0.168 ± 0.031
9,GCACC,0.153 ± 0.024
10,GCACG,0.521 ± 0.053
11,GATAC,0.188 ± 0.058
12,GCTAC,0.15 ± 0.04
13,GCTAG,0.375 ± 0.11
14,GTCAA,0.766 ± 0.16
15,GTACG,1.47 ± 0.055
16,CCTTC,0.171 ± 0.02
17,ATTAA,0.524 ± 0.12
18,ATTAT,1.85 ± 0.22
19,TAATA,0.189 ± 0.0088
20,GACGC,0.264 ± 0.024
21,GACGA,1.29 ± 0.2
22,GGATA,0.432 ± 0.027
23,CCATA,0.14 ± 0.025
24,CCATC,0.121 ± 0.0018

row,Variant,ligation selection enrichment
1,TAAGG,0.733 ± 0.15
2,AATGT,0.153 ± 0.076
3,AATGC,0.198 ± 0.015
4,CCAAG,0.349 ± 0.024
5,CCAAC,0.217 ± 0.026
6,TAGTC,0.182 ± 0.044
7,TAGTT,0.218 ± 0.078
8,ATCGC,0.48 ± 0.024
9,GGTTG,3.91 ± 0.67
10,GGTTA,0.477 ± 0.095
11,GGTTC,0.216 ± 0.015
12,AAAAG,0.226 ± 0.025
13,TAGCC,0.16 ± 0.02
14,TCTAG,0.285 ± 0.051
15,TATTG,2.17 ± 0.33
16,TATTA,0.197 ± 0.042
17,GGCCC,0.192 ± 0.0055
18,GGCCG,0.746 ± 0.042
19,AGGAA,2.74 ± 0.034
20,AGGAT,95.7 ± 0.79
21,TAGAC,1.03 ± 0.29
22,TAGAG,0.755 ± 0.058
23,TAGAA,0.484 ± 0.075
24,CTTAG,0.243 ± 0.0061

row,Variant,ligation selection enrichment
1,AACAA,0.209 ± 0.018
2,ATGTG,0.566 ± 0.096
3,ATGTA,0.206 ± 0.024
4,ATGTT,0.166 ± 0.064
5,AGTTG,3.78 ± 0.71
6,AGTTT,0.427 ± 0.11
7,GGCTG,0.393 ± 0.032
8,GGCTA,0.228 ± 0.037
9,CCCAG,0.145 ± 0.0045
10,GCTCC,0.301 ± 0.0054
11,CTATT,0.546 ± 0.083
12,AGCGG,0.213 ± 0.012
13,GCCGT,0.214 ± 0.082
14,GCCGG,0.313 ± 0.024
15,GCTGC,0.1333 ± 0.00076
16,GCTGG,0.462 ± 0.073
17,GCTGT,0.15 ± 0.068
18,GCTGA,0.315 ± 0.015
19,TGGAC,24.7 ± 2.8
20,TGGAT,233 ± 62
21,CAATT,0.343 ± 0.11
22,TTACA,0.193 ± 0.00088
23,AGTAA,0.427 ± 0.042
